Reference: patent publication US20090186027A1 (RAMOT AT TEL AVIV UNIVERSITY, published 2009)

Target: T1, β-amyloid peptide 1-40 (UniProt P05067 672-711)
T1 construct: domain: beta amyloid peptide 1-40; Residues 1-40 are counted on Aβ, not on the APP entry; Coated after overnight incubation at 37 C (ELISA) or pre-aggregated for a week (ThT assay); also called Aβp 1-40; AβP 1-40
Assay: ELISA, constant 10 µM Aβ 1-40 coated, 3.125-25 µM antibody; reference 37L
Procedure: Wells were washed and blocked with 3% milk powder in PBS for 1 hr at 37° C. […] The rest of the ELISA assay was performed as described above.

B1: 37H (single domain antibody, heavy chain variable domain of scFv RCK37) (other)
VH: MAHVQFVQSGGDLVKPGGSLKLSCAASGFTFSSYGMSWVRQTPDKRLEWVATISSGGSYTYYPDSVKGRFTISRDNAKNTLYLQMSSLKSEDTAMYYCARHNYGSSYPYAMDYWGQGTPVTVSA
notes: also called 37H nanobody; nanobody 37H; not shown: C-terminal His tag from the pET28/pET21 vector
**Q.** For B1, which “fold stronger binding than 37L” value is on record?
**A.** The value was 5 times.
